Assay results reported in the supplement of paper PMC9112550, “Optimization of the antimicrobial peptide Bac7 by deep mutational scanning” (BMC Biology, 2022).

tested on: Escherichia coli TOP10; experiment: shrunken log2 fold change of peptide-encoding DNA abundance (4.5 h post-induction vs induction); higher = less antimicrobial activity (less host growth inhibition); details: time post-induction: 4.5 h; library: site-saturation at positions 5, 18, 19, 20
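Further: peptides expressed intracellularly from a pBAD plasmid library in pooled LB shake-flask culture, induced with 0.3% L-arabinose, DNA abundance read by NGS, three biological replicates, DESeq2 with apeglm shrinkage.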

Sequence	shrunken log2 fold change
RRIRVRPPRLPRPRPRPQKQPRP	-0.376
RRIRVRPPRLPRPRPRPPLHPRP	0.128
RRIRQRPPRLPRPRPRPTACPRP	0.0488
RRIRRRPPRLPRPRPRPCMNPRP	-0.154
RRIRARPPRLPRPRPRPWMQPRP	-0.152
RRIRVRPPRLPRPRPRPTRPPRP	0.822
RRIRCRPPRLPRPRPRPWNVPRP	-0.476
RRIRVRPPRLPRPRPRPHQLPRP	-0.243
RRIRGRPPRLPRPRPRPQMIPRP	1.83
RRIRMRPPRLPRPRPRPERWPRP	1.5
RRIRYRPPRLPRPRPRPSMWPRP	-1.68
RRIRKRPPRLPRPRPRPQLKPRP	0.275
RRIRNRPPRLPRPRPRPITNPRP	-0.279
RRIRQRPPRLPRPRPRPANVPRP	-0.105
RRIRWRPPRLPRPRPRPWLTPRP	-0.0976
RRIRFRPPRLPRPRPRPYALPRP	-0.0591
RRIRQRPPRLPRPRPRPDFHPRP	0.0254
RRIRDRPPRLPRPRPRPPDGPRP	0.577
RRIRSRPPRLPRPRPRPQRGPRP	0.274
RRIRPRPPRLPRPRPRPDYHPRP	-0.815
RRIRCRPPRLPRPRPRPWKMPRP	-0.0124
RRIRPRPPRLPRPRPRPRYPPRP	0.202
RRIRRRPPRLPRPRPRPQEPPRP	0.0839
RRIRERPPRLPRPRPRPESVPRP	-0.316
RRIRWRPPRLPRPRPRPRSNPRP	-0.133

Sequence	shrunken log2 fold change
RRIRNRPPRLPRPRPRPDLSPRP	-0.0537
RRIRRRPPRLPRPRPRPCKDPRP	-0.0845
RRIRRRPPRLPRPRPRPRNFPRP	0.306
RRIRGRPPRLPRPRPRPVVQPRP	0.94
RRIRLRPPRLPRPRPRPMTPPRP	-0.023
RRIRNRPPRLPRPRPRPKSTPRP	-0.271
RRIRQRPPRLPRPRPRPNTMPRP	0.12
RRIRDRPPRLPRPRPRPARCPRP	0.446
RRIRARPPRLPRPRPRPWQSPRP	0.183
RRIRFRPPRLPRPRPRPDGEPRP	0.0232
RRIRLRPPRLPRPRPRPFQPPRP	0.113
RRIRHRPPRLPRPRPRPLTVPRP	-0.0423
RRIRIRPPRLPRPRPRPEKDPRP	-0.0191
RRIRYRPPRLPRPRPRPRLWPRP	0.14
RRIRFRPPRLPRPRPRPTPLPRP	0.3
RRIRHRPPRLPRPRPRPTYKPRP	-0.333
RRIRWRPPRLPRPRPRPSSSPRP	0.00035
RRIRGRPPRLPRPRPRPVGTPRP	0.304
RRIRDRPPRLPRPRPRPQHNPRP	-0.554
RRIRPRPPRLPRPRPRPWPNPRP	-0.0364
RRIRLRPPRLPRPRPRPADCPRP	0.142
RRIRVRPPRLPRPRPRPLNKPRP	-0.323
RRIRPRPPRLPRPRPRPAWWPRP	0.259
RRIRQRPPRLPRPRPRPWWSPRP	0.0234
RRIRHRPPRLPRPRPRPMTRPRP	-0.0247

Sequence	shrunken log2 fold change
RRIRMRPPRLPRPRPRPSDEPRP	0.958
RRIRYRPPRLPRPRPRPVDPPRP	-0.0356
RRIRSRPPRLPRPRPRPMDRPRP	-0.155
RRIRSRPPRLPRPRPRPVALPRP	-0.0772
RRIRYRPPRLPRPRPRPQTNPRP	-0.711
RRIRYRPPRLPRPRPRPRTQPRP	0.0444
RRIRLRPPRLPRPRPRPRFCPRP	-0.0895
RRIRFRPPRLPRPRPRPDRCPRP	-0.208
RRIRHRPPRLPRPRPRPRPQPRP	0.416
RRIRVRPPRLPRPRPRPSYHPRP	-0.819
RRIRRRPPRLPRPRPRPKKRPRP	0.976
RRIRCRPPRLPRPRPRPVICPRP	-0.241
RRIRWRPPRLPRPRPRPCYQPRP	0.0103
RRIRERPPRLPRPRPRPNRMPRP	-1.36
RRIRARPPRLPRPRPRPLPLPRP	0.186
RRIRQRPPRLPRPRPRPNATPRP	0.251
RRIRIRPPRLPRPRPRPIWAPRP	-0.234
RRIRDRPPRLPRPRPRPATGPRP	0.312
RRIRDRPPRLPRPRPRPSLNPRP	0.138
RRIRERPPRLPRPRPRPLTKPRP	-0.0153
RRIRNRPPRLPRPRPRPGGIPRP	-0.109
RRIRERPPRLPRPRPRPDPIPRP	-0.224
RRIRVRPPRLPRPRPRPYTGPRP	-0.0211
RRIRDRPPRLPRPRPRPSLRPRP	0.188
RRIRHRPPRLPRPRPRPMWIPRP	-0.0176
